In patent publication US20110300138A1 (published 2011):

Tests used:
[1] = target: TSHR260-AP (human); assay: TSHR260-AP bridge ELISA (full length TSHR on wells, TSHR260-AP in solution); IgG 0.01 µg/mL diluted in assay buffer
[2] = target: TSHR260-AP (human); assay: TSHR260-AP bridge ELISA (full length TSHR on wells, TSHR260-AP in solution); IgG 0.05 µg/mL diluted in HBD serum
[3] = target: TSHR260-alkaline phosphatase (TSHR260-AP) (human) (UniProt P05187); assay: TSHR260-AP bridge ELISA, full length TSHR on wells; 0.5 µg/mL, diluted in assay buffer
[4] = target: TSHR260-AP (human); assay: TSHR260-AP bridge ELISA (full length TSHR on wells, TSHR260-AP in solution); IgG 250 µg/mL diluted in assay buffer
[5] = target: TSHR260-alkaline phosphatase (TSHR260-AP) (human) (UniProt P05187); assay: TSHR260-AP bridge ELISA, full length TSHR on wells; 0.1 µg/mL, diluted in assay buffer
[6] = target: TSHR260-alkaline phosphatase (TSHR260-AP) (human) (UniProt P05187); assay: TSHR260-AP bridge ELISA, full length TSHR on wells; 0.01 µg/mL, diluted in assay buffer
[7] = target: TSHR260-alkaline phosphatase (TSHR260-AP) (human) (UniProt P05187); assay: TSHR260-AP bridge ELISA, full length TSHR on wells; 1 µg/mL, diluted in assay buffer
[8] = target: TSHR260-alkaline phosphatase (TSHR260-AP) (human) (UniProt P05187); assay: TSHR260-AP bridge ELISA, full length TSHR on wells; 0.01 µg/mL, diluted in HBD
[9] = target: TSHR260-AP (human); assay: TSHR260-AP bridge ELISA (full length TSHR on wells, TSHR260-AP in solution); IgG 0.5 µg/mL diluted in assay buffer
[10] = target: TSHR260-AP (human); assay: TSHR260-AP bridge ELISA (full length TSHR on wells, TSHR260-AP in solution); IgG 0.005 µg/mL diluted in HBD serum
[11] = target: human TSHR (thyroid stimulating hormone receptor) expressed in transfected CHO cells (human) (UniProt P16473); assay: cell-based or functional assay
[12] = target: human TSH receptor (full length, wild type) expressed in CHO cells (human) (UniProt P16473); assay: cell-based or functional assay
[13] = target: human TSH receptor (full length, wild type) expressed on CHO cells (human) (UniProt P16473); assay: cell-based or functional assay
[14] = target: TSHR260-AP (human); assay: TSHR260-AP bridge ELISA (full length TSHR on wells, TSHR260-AP in solution); IgG 0.1 µg/mL diluted in assay buffer
[15] = target: TSHR260-AP (human); assay: TSHR260-AP bridge ELISA (full length TSHR on wells, TSHR260-AP in solution); IgG 10 µg/mL diluted in HBD serum
[16] = target: TSHR260-AP (human); assay: TSHR260-AP bridge ELISA (full length TSHR on wells, TSHR260-AP in solution); IgG 0.05 µg/mL diluted in assay buffer

M22 IgG (antibody), sequence (VH): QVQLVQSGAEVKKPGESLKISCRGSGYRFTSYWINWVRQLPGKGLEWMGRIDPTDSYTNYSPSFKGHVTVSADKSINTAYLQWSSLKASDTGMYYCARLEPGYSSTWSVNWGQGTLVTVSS
M22 IgG (antibody), sequence (V domain): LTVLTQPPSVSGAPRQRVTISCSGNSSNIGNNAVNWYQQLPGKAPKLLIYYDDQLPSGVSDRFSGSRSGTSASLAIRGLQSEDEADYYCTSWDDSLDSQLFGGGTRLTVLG

Mean absorbance at 405 nm (absorbance at 405 nm) [1]: 0.101 | Mean absorbance at 405 nm (absorbance at 405 nm) [2]: 0.204 | Mean absorbance at 405 nm (absorbance at 405 nm) [3]: 0.776 | Mean absorbance at 405 nm (absorbance at 405 nm) [4]: 1.01 | Mean absorbance at 405 nm (absorbance at 405 nm) [5]: 0.653 | Mean absorbance at 405 nm (absorbance at 405 nm) [6]: 0.101 | Mean absorbance at 405 nm (absorbance at 405 nm) [7]: 0.821 | Mean absorbance at 405 nm (absorbance at 405 nm) [8]: 0.03 | Mean absorbance at 405 nm (absorbance at 405 nm) [9]: 0.776 | Mean absorbance at 405 nm (absorbance at 405 nm) [10]: 0.045 | Cyclic AMP concentration; 3 ng/mL M22 IgG [11]: 44.4 pmol/mL | Cyclic AMP concentration at 0.3 ng/mL M22 IgG [12]: 2.36 pmol/mL | Cyclic AMP concentration at 1 ng/mL M22 IgG [12]: 12 pmol/mL | Cyclic AMP concentration at 3 ng/mL M22 IgG [12]: 24.6 pmol/mL | Cyclic AMP concentration at 10 ng/mL M22 IgG [12]: 58.9 pmol/mL | Cyclic AMP production concentration at 1 ng/mL M22 IgG [12]: 8.1 pmol/mL | Cyclic AMP production concentration at 3 ng/mL M22 IgG [12]: 24.3 pmol/mL | Cyclic AMP production concentration at 10 ng/mL M22 IgG [12]: 50.3 pmol/mL | Cyclic AMP production concentration at 30 ng/mL M22 IgG [12]: 60.9 pmol/mL | Cyclic AMP production concentration at 100 ng/mL M22 IgG [12]: 64.6 pmol/mL | Cyclic AMP stimulating activity at 1 ng/mL M22 IgG, units/L (NIBSC 90/672) [12]: 0.3 units/L | Cyclic AMP stimulating activity at 1 ng/mL M22 IgG, units/mg (NIBSC 90/672) [12]: 300 units/mg | Cyclic AMP stimulating activity at 3 ng/mL M22 IgG, units/L (NIBSC 90/672) [12]: 0.8 units/L | Cyclic AMP stimulating activity at 3 ng/mL M22 IgG, units/mg (NIBSC 90/672) [12]: 267 units/mg | Cyclic AMP stimulating activity of M22 IgG, mean units/mg (NIBSC 90/672; mean of 1, 3 and 10 ng/mL) [12]: 286 units/mg | Cyclic AMP concentration; 3 ng/mL M22 IgG alone [13]: 33.1 pmol/mL | Mean absorbance at 405 nm (absorbance at 405 nm) [14]: 0.653 | Mean absorbance at 405 nm (absorbance at 405 nm) [15]: 0.796 | Mean absorbance at 405 nm (absorbance at 405 nm) [16]: 0.484
Substance: M22 IgG (antibody)
